{"source": "paper PMC11325027", "key": {"[1]": {"molecular_target": "E. coli initiation factor 2 (IF2) (E. coli) (UniProt P0A705)", "assay": "BLI; biotinylated protein ([…] load) immobilised on High Precision Streptavidin (SAX) tips, E. coli 70S ribosome as analyte; Octet RED96e, 30 °C, 1,000 rpm; ribosome buffer 20 mM Tris HCl pH 7.5, 60 mM NH4Cl, 7.5 mM Mg(CH3COO)2, 0.5 mM EDTA, 6 mM βME with 0.1% BSA and 0.02% Tween-20; IF2 pre-incubated with GDPNP; Kd from the fit of equilibrium responses, double-referenced"}, "[2]": {"molecular_target": "P. falciparum translation enhancing factor C-terminal domain (PTEF-CTD) (P. falciparum)", "assay": "BLI; biotinylated protein ([…] load) immobilised on High Precision Streptavidin (SAX) tips, E. coli 70S ribosome as analyte; Octet RED96e, 30 °C, 1,000 rpm; ribosome buffer 20 mM Tris HCl pH 7.5, 60 mM NH4Cl, 7.5 mM Mg(CH3COO)2, 0.5 mM EDTA, 6 mM βME with 0.1% BSA and 0.02% Tween-20; IF2 pre-incubated with GDPNP; Kd from the fit of equilibrium responses, double-referenced"}}, "note": "Several values for one entry are separate records, joined by “and”; a condition that tells them apart may be missing. Equal entries are not always repeated.", "data": [{"substance": "E. coli 70S ribosome (complex)", "values": [{"measurement": "Kd", "setting": "[1]", "value": "0.0093 µM and 0.0027 µM and 0.0015 µM"}, {"measurement": "Kd", "setting": "[2]", "value": "0.426 µM and 0.313 µM and 0.515 µM"}]}]}
